Laboratory results from a protein production outcome set (Wang et al. 2014).

Assay: label from the status in PepcDB records
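Note: failed if final PepcDB status was selected cloned or expressed and not failed if soluble or beyond.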

LKLTKIIVSEAGASVYSASEIAANEFPDLDVSLRGAVSIARRLQDPLAELVKIEAKSIGVGQYQHDVNQAKLARCLDGVVEDCVNAVGVDINTASAALLSHISGLNDTLAKNIVQFRDEHGAFTNRNQLKNIHRMGEKAFQQAAGFLRIMNGDNALDASCVHPEAYPLVEKIISDKKVSIKEIIGNRELLQSINAEQYVDENFG
protein production: failed

MTQPSGLKNLLRAAAGALPVVPRTDQLPNRTVTVEELPIDPANVAAYAAVTGLRYGNQVPLTYPFALTFPSVMSLVTGFDFPFAAMGAIHTENHITQYRPIAVTDAVGVRVRAENLREHRRGLLVDLVTNVSVGNDVAWHQVTTFLHQQRTSLSGEPKPPPQKKPKLPPPAAVLRITPAKIRRYAAVGGDHNPIHTNPIAAKLFGFPTVIAHGMFTAAAVLANIEARFPDAVRYSVRFAKPVLLPATAGLYVAEGDGGWDLTLRNMAKGYPHLTATVRGL
protein production: failed

MAPCLENVACVNLSAMPPAPPSPQPVSHKQAATLCRQGRTCALKSGSNESGGSVTSTYTSYRLISQDIGKSLERVSKQPDVARETEYYREKIGSVKSIDDFMADTRLYNYALKAHGLEDMAYAKAFIRKVLTEGASDKNAFANKLSDNRYAELAKSLDFAGLGAAATATEAAKSGVIGNYARQTLEQEAGDDNNGVRLALYFERKAPTIKSGLDFLADDALAQVFRTTFNLPDAFAAADVDKQAALIEKSINIKDLQDPEKVGKLLERFTIMWEMQNPSTTYDPLAVFGSSSGYGISPDLLISINSLKLGGKLEHHHHHH
protein production: not failed

MKKFIILLSLLILLPLTAASKPLIPIMKTLFTDVTGTVPDAEEIAHKAELFRQQTGIAPFIVVLPDINNEASLRQNGKAMLAHASSSLSDVKGSVLLLFTTREPRLIMITNGQVESGLDDKHLGLLIENHTLAYLNADLWYQGINNALAVLQAQILKQSTPPLTYYPHPGQQHENAPPGSTNTLGFIAWAATFILFSRIFYYTTRFIYALKFAVAMTIANMGYQALCLYIDNSFAITRISPLWAGLIGVCTFIAALLLTSKR
protein production: failed

MNKRAREWVSVGITWVQDVIYVALGILLTLACAVLLLHGGVNLVGALGRDLDLQVIVQLLDRILLAMMIVELLYTVKVSFRDHLLVPEPFLLVALIAAIRRILVITAEFGAQAPSGDEQFRHVMSELGLLTVLILVLVGSVVILRRRDSAEAPR
protein production: failed

KIMIAALDYDPGDGQMGGQGKGRLALRAGDVVMVYGPMDDQGFYYGELGGHRGLVPAHLLDHMSLHGH
protein production: not failed

MPKHEFSVDMTCGGCAEAVSRVLNKLGGVKYDIDLPNKKVCIESEHSMDTLLATLKKTGKTVSYLGLE
protein production: not failed

MSYGLIIVLMIILGIGLWHTKKYHRAVVNQVAHVWITKNAFEHTALGMAIVSPDCRFLKVNRAYGEITGYTRPELLKMAVKELTHPEDQEKDTPYLQEVFAGNIHSFTTVKRYIHKNGSTIWVRSTISAVRTERGNLEHHHHHH
protein production: not failed

MAFPEYSPAASAATFADLQIHPRVLRAIGDVGYESPTAIQAATIPALMAGSDVVGLAQTGTGKTAAFAIPMLSKIDITSKVPQALVLVPTRELALQVAEAFGRYGAYLSQLNVLPIYGGSSYAVQLAGLRRGAQVVVGTPGRVIDHLERATLDLSRVDFLVLDEADEMLTMGFADDVERILSETPEYKQVALFSATMPPAIRKLSAKYLHDPFEVTCKAKTAVAENISQSYIQVARKMDALTRVLEVEPFEAMIVFVRTKQATEEIAEKLRARGFSAAAISGDVPQAQRERTITALRDGDIDILVATDVAARGLDVERISHVLNYDIPHDTESYVHRIGRTGRAGRSGAALIFVSPRELHLLKAIEKATRQTLTEAQLPTVEDVNTQRVAKFADSITNALGGPGIELFRRLVEEYEREHDVPMADIAAALAVQCRGGEAFLMAPDPPLSRRNRDQRRDRPQRPKRRPDLTTYRVAVGKRHKIGPGAIVGAIANEGGLHRSDFGQIRIGPDFSLVELPAKLPRATLKKLAQTRISGVLIDLRPYRPPDAARRHNGGKPRRKHVG
protein production: failed

MSEDEAQFHGNYDDYVTYLKRRIRQLELQVRMLEADKERLERELSRLRSEMSRLRQPPAFAGSVIEVLDDDRAIVQNYNGPRFVVRIAPWIDKSKLRPGTRVALDQRTMAIIEILPASKDPAVLGFEVVERPN
protein production: failed

MRTSNPMLKKEAFRKEGASASAMTIGGTVGKTFIMLILLLATSVYSYIQMMQGTMKMPVLIGALIVAAIIAFASMFFPRISPFGAPIYAAVEGVVLGSISAVYTMKFGDSIVLNAVLLTISILFAMLVLYATRVVKVTDKFRTGVMAATLGIMVMYLVVFLLNMFGVTVPYIHQGGTIGIIISAVVIVVAALNLLLDFDLIENGVRSQAPKYMEWYTAMGLMLTLVWLYLEILRFVSYFTKND
protein production: not failed

RLRHCNHHDPHGFYGWHETEAGSVIRTRQVGATQVNLLIDDTSHVMTPIGDDIFAIDLGHRERADYRLEVTWPDQEPQVKADPYYFLPTVG
protein production: failed

MTEINLLQPMHASTKRDYVQRVVEHDKAESAAVARQWGRDYWDGDRRYGYGGYRYDGRWRPLAQTLIDRYGIKPGMSVLDVGCGKGYLLYEFTQLVPDLTIAGIDVSEYGIANAKEDVRPQLRVGSAVELPYPDHSFDLVVSLGVLHNLPLEDVFRAVSEIERVGRGASKYLMVESFRNEREKANLLYWQLTCLSFHGPDTWAWIYDKCGYRGDHGFIFFE
protein production: failed

MSEVEQFATIALISLTAFISPLIADKLRVPVVVLEIVLGMIFGVSFLNVIYASEWLSFLSLFGLIFLMFLAGLEIDADVVLKSGHLKRVVAFFALSLALSVALTALMGLNLFYAIILTNVAVGVVVSVLREIGLEKEDFGQLNIVTALVSDFSTMFLLSIYFITGYLQVAFAFLIILVFLAAYRFGKLVIWHFPDFISRWFSDEPSEIGVRGSLAIMILFVGLSSLLGVEAILGAFLAGVLLSITFRGGKKLYDKLYGMGFGFFIPIFFIKTGSELNITQAGEGIGFILLLLAVSVAVKGIPSLIFASNFGLRRAISMGMLQSTKLSLTIAGVAIGVSSGVITEFESTALVTFTIISCLLSPTLFRFLYPRYLPKTR
protein production: failed

MSTRRSAFLRGLWAATPFSLVIAPFGLLFGVVGTEAGLDIVEVMGFSIIVIAGAAQFAAVQMMADHAPTLIILATSLAVNLRMAMYSASLTPHLGPAPAGLRALIAYCLVDQTYTASMIEFDRAPQQSLGEKIAFFFGTVLPVCPLWYGSTYVGARLGTKIPPEFALDFAVPITFLAMIAPLLRTPAHIAAAGVSVALSLVLAFMPYNSGLLVAAVAAMVTGAQVEAWTERRRAA
protein production: failed

MQKIIDDSLELAKKLQDSISNHLSDQEKAFHSKMQKLLNNPENKVMLIELMDRSFRCLDNKARFEMIEHVLDKYKSREIFSPFEKVLLMGFLSFGKMLPDMSVPFFVNKIRSDTKAMVLDQEESQLKERILKRKNEKIILNVNFIGEEVLGEEEANARFEKYSQALKSNYIQYISIKITTIFSQINILDFEYSKKEIVKRLDALYALALEEEKKQGMPKFINLDMEEFRDLELTVESFMESIAKFDLNAGIVLQAYIPDSYEYLKKLHAFSKERVLKGLKPIKIRFVKGANMESEETIASVKDWALPTFSNKQDTDSNYNKMLDFVLEGDNYKYIHIGAASHNIFEIAYVYTRIHAINDPVVLEHFSFEMLEGMSLQASQELKEMHKLILYAPVCDEAHFNNAIAYLVRRLDENTSSDNFMKAFFNLKVGTSEWKDQEQRFLNSLKGIATLDNATHRTQDRNAKQSGHTTYPNHSFKNESDTDFILKANREWAKKVREKMRNAPILELYPEMDGRFEDPNLTPLEVFDRIHHKKIASVHLADKEAILKALEVAKSDKSRFSQKSFTEIHALMSQTAQLFRERRGDLIGISALEVGKTFAETDAEVSEAIDFLEFYPYSLRVLQEQNTKTQFTPKGVGVVIAPWNFPVGISVGTIAAPLATGNRVIYKPSSLSSVTGYKLCECFWDAGVPRDALIYLPSKGSDISEHLLRDESIQFAILTGGEDTAYKMLKANPTLALSAETGGKNATIVSKMADRDQAIKNVIHSAFSNSGQKCSATSLLVLEKEVYEDENFKKTLIDATLSLSVGDPFDFKNKIGALADKPNEKVIKAIDELKSYENYEIPVSFVNDNPYLMKPSIKYGTKKGDFTHQTELFTPILSVMEAKDLDEAIEIANSTGYGLTSALESLDEREWEYYLERIEAGNIYINKPTTGAIVLRQPFGGVKKSAVGFGRKVGIFNYITQFVNICQEEEDENALKNPLSEALENLTQKGYDEHTHELKRAIFMAKSYAYHYKHEFSQTKDYVKIRGEDNLFSYTKVKSVGYRITEKDTLSDMLGVALACLISQIPLTLSIENERTNKDLTFFLECLKALQASAPIVYESLQKFSEKLNTFNRVRYLKSDLDLLHEQASALGMVLATAKPCLNGRFELLYYHLERSVSISYHRYGNLGSRVLRQPTCHKSCCAEK
protein production: failed

YDAILLIDYRQRRIIDCNQTAQKLLGYSKEELRLLPPYRLLRAMSARSIKPIFQDILAKRREIHDITLLSQSGEQLLGQLSFNTLQEED
protein production: failed

MLAERGANITGLDISGPMLQQGREKAQATGVDDRVEFMRGDAARLPFPDDHFDTVFAMRFFHLADTPAAFLAEMRRVSKEQVFFDTFNRFSTRSIYNWALPMGSRLYSRWEIDRLLDGAGLELTDANHDWLLPYGFYRKIPNELAASFRSLDTALGGTPLGEKLASVSYWNTHVLEHHHHHH
protein production: failed

MMEDRSLNSHGMPSRRGLEPLEWGATGLTVVLSVAAAATQQAILTAIAPLPLSLAVGLNWVSRKKLDDQFQVFRQQQEAKIAELVASQGQQQSELASLNLALAQVRDRLEDVQKQVMQLNQGAQDLHDYTRILDTEQKQIEEVLDCLREIEKNTQVIQVNPSHAKAYYNRGLTHQRLGDAEAAILDYTEAIRLNDTYAKAYHNRGVARSTLGDRKGAVEDLRTAAKLFFEQGDISSYQRARDLAKRIHEVGSIEQDNQEGTIKEVPLEILFS
protein production: failed

EHIVPSNQQQIVRVLRTPGNNLHEVETAQGQRFLVSMPSKYRKNIWIKRGDFLIVDPIEEGEKVKAEISFVLCKDHVRSLQKEGFWPEAFSEVAEKHN
protein production: not failed

MLHIDDAMIEDAVTPQAAQEVLHAAFLDFGRGSAAMQRRVRTEAGGVKLSTLGAVIPGQGVAGAKVYTTIKGQFQFVILLFSAADGRPLATCDAGTLTRKRTAACTVLAAGALARPRSSVLGLFGAGTQGVEHAAQLSARFALEAILVHDPHASPEVVERIGRRCGVPARMAAPADIAAQADIVVTATRSATPLFAGQALRAGAFVGAIGSSLPHTRELDDEALRRARAVVVEWREQTLSEAGDLVLAAPDTGLDAKVVELADVLAGRATARQADEDIVIYKSVGVGLEDVALAGYAYRRLAAQRGWPAP
protein production: failed

MGTSDEEIDRLLGKLTPRARALLLNGATTWRTRAEPAVELRELVMSDGPAGVRGEAWDERSTSLLLPSASALAATWDEALVEDLGGLLAAEARRKGVDVLLAPTLNLHRSPLGGRHFECLSEDPELTGRIGAALVRGIQAHGVAATAKHYVANDSETDRLTVDVRVGERALREVYLAPFEAAVAAGVRLVMAGYNAVNGTTMTANALLTDPLKSEWGFDGVVVSDWGAVRGTTGTARAGLDLAMPGPDGPWGEALARAVAEGAVPEPAVDDKARRLLRLAAWLGALGGRDVSRSPVPGRPADSPGAEGADGGAGAGPSSGAEGLPGRGPAHGAKPSGPRPRRAGDGRALARRAVAAGAVLLANKDVLPLDPEHLGTVAVIGAHAARTRTQGGGSAGVFPRGEVSVLDGIRAELRGRARVVHVPGPRPDGPAPPLDPDTCTDPRSGLPGVLLRMLDADGRELYAERRRGGRLLEPRLVPGAHTVEIRARLCPRTGGSWSLGVAGFGRMSLTTDGRTLLEGDFPPSTDDPAVMHVNPPAQYATADLTAGRDTLLVARRELAPGTGRATVLVAAPPAPDVTASLAEAVRAAGAADAAVVVVGTTEHGESEGYDRTDLALGATQDALVRAVAAANPRTVAVVNSGGPVELPWREQAGAVLLAWFPGQEGGGGLADVLFGHAEPGGRLPTTWPAVLADAPVTRTRPDGGRLDYDEGLHLGHRGWLRHHRTPAYWFGHGLGYTTWRYEELTVPPVTRAGDGLTVRVRVRNTGARAGREVVQVYLARPASALDRPARWLAGYTAVRARPGETVTATVRVPARALRHWSVAEHAWRTEAGPCRVLAGRSAGDVPLAAEVEVVPTASA
protein production: failed
